Measurements: patent publication US20250320281A1

Legend:
Experiment in all cases: cell-based or functional assay
[1] = molecular target: HIV-1 92RW020 envelope glycoprotein (Env) on pseudovirus (HIV-1)
[2] = molecular target: HIV-1 92UG024 envelope glycoprotein (Env) on pseudovirus (HIV-1)
[3] = molecular target: HIV-1 APV-17 envelope glycoprotein (Env) on pseudovirus (HIV-1)
[4] = molecular target: HIV-1 Env of isolate 92BR020, clade B, on pseudovirus (HIV-1)
[5] = molecular target: HIV-1 Env of isolate 92RW024 (clade A pseudovirus) (HIV-1)
[6] = molecular target: HIV-1 Env of isolate 98CN006 (CRF08 BC) (HIV-1 isolate 98CN006)
[7] = molecular target: HIV-1 Env of isolate 98IN022 (clade C) (HIV-1 isolate 98IN022)
[8] = molecular target: HIV-1 Env of isolate MGRM-D-013 (clade D pseudovirus) (HIV-1)
[9] = molecular target: HIV-1 Env of isolate MGRM-D-014 (clade D pseudovirus) (HIV-1)
[10] = molecular target: HIV-1 Env of isolate MGRM-D-022 (clade D pseudovirus) (HIV-1)
[11] = molecular target: HIV-1 Env of isolate NL43, clade B, on pseudovirus (HIV-1)
[12] = molecular target: HIV-1 Env of pseudovirus MGRM-AE-007 (clade CRF01_AE) (HIV-1)
[13] = molecular target: HIV-1 Env of pseudovirus MGRM-AG-005 (clade CRF_AG) (HIV-1)
[14] = molecular target: HIV-1 Env of pseudovirus MGRM-AG-006 (clade CRF_AG) (HIV-1)
[15] = molecular target: HIV-1 Env of pseudovirus MGRM-AG-011 (clade CRF_AG) (HIV-1)
[16] = molecular target: HIV-1 Env of pseudovirus MGRM-Chronic-B-017 (HIV-1)
[17] = molecular target: HIV-1 Env of pseudovirus MGRM-F1-006 (HIV-1)
[18] = molecular target: HIV-1 Env of pseudovirus MGRM-G-006 (clade G) (HIV-1)
[19] = molecular target: HIV-1 envelope glycoprotein (Env) of isolate 94UG103, clade A (HIV-1)
[20] = molecular target: HIV-1 envelope glycoprotein (Env) of isolate MGRM-A-003, clade A (HIV-1)
[21] = molecular target: HIV-1 envelope glycoprotein (Env) of isolate MGRM-A-006, clade A (HIV-1)
[22] = molecular target: HIV-1 envelope glycoprotein (Env) of isolate MGRM-A-010, clade A (HIV-1)
[23] = molecular target: HIV-1 92RW020 Env (pseudovirus, clade A) (HIV-1)
[24] = molecular target: HIV-1 APV13 Env (pseudovirus) (HIV-1)
[25] = molecular target: HIV-1 Env of isolate 92TH021 (subtype AE) (HIV-1)
[26] = molecular target: HIV-1 Env of isolate 98CN006 (HIV-1)
[27] = molecular target: HIV-1 Env of isolate MG RM-D-002 (HIV-1)
[28] = molecular target: HIV-1 Env of isolate MGRM-A-003 (HIV-1)
[29] = molecular target: HIV-1 Env of isolate MGRM-A-006 (HIV-1)
[30] = molecular target: HIV-1 Env of isolate MGRM-A-010 (subtype A) (HIV-1)
[31] = molecular target: HIV-1 Env of isolate MGRM-A-011 (subtype A) (HIV-1)
[32] = molecular target: HIV-1 Env of isolate MGRM-AE-008 (subtype AE) (HIV-1)
[33] = molecular target: HIV-1 Env of isolate MGRM-Chronic-B-024 (subtype B) (HIV-1)
[34] = molecular target: HIV-1 Env of isolate VLGCA1 (subtype A) (HIV-1)
[35] = molecular target: HIV-1 JRCSF Env (pseudovirus, clade B) (HIV-1) (UniProt P20871)
[36] = molecular target: aMLV envelope (negative control pseudovirus)

1443_C16 (PG16) (TCN-116) (antibody), sequence (VH): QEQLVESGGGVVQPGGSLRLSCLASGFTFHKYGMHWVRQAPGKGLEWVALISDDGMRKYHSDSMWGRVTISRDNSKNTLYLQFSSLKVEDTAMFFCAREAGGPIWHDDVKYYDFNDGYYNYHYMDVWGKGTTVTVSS
1443_C16 (PG16) (TCN-116) (antibody), sequence (VL): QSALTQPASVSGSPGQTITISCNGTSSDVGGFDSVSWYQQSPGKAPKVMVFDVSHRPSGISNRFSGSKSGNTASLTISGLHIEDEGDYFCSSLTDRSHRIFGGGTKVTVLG
5329_C19 (PGT-136) (antibody), sequence (VH): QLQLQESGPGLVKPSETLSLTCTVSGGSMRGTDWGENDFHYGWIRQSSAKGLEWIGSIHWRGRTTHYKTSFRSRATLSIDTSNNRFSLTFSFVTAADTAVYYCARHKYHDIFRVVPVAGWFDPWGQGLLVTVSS
5329_C19 (PGT-136) (antibody), sequence (VL): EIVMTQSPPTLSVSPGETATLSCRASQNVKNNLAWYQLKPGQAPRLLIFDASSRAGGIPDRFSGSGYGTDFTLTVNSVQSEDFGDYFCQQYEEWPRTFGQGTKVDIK

| Substance | IC50, pseudovirus neutralization [1] [µg/mL] | IC50, pseudovirus neutralization [2] [µg/mL] | IC50, pseudovirus neutralization [3] [µg/mL] | IC50 (µg/ml), pseudovirus neutralization [4] [µg/mL] | IC50 (µg/ml), pseudovirus neutralization [5] [µg/mL] | IC50 (µg/ml), pseudovirus neutralization [6] [µg/mL] | IC50 (µg/ml), pseudovirus neutralization [7] [µg/mL] | IC50 (µg/ml), pseudovirus neutralization [8] [µg/mL] | IC50 (µg/ml), pseudovirus neutralization [9] [µg/mL] | IC50 (µg/ml), pseudovirus neutralization [10] [µg/mL] | IC50 (µg/ml), pseudovirus neutralization [11] [µg/mL] | IC50 [12] [µg/mL] | IC50 [13] [µg/mL] | IC50 [14] [µg/mL] | IC50 [15] [µg/mL] | IC50 (µg/ml), pseudovirus neutralization [16] [µg/mL] | IC50 (µg/ml), pseudovirus neutralization [17] [µg/mL] | IC50 [18] [µg/mL] | IC50 (µg/ml), pseudovirus neutralization [19] [µg/mL] | IC50 (µg/ml), pseudovirus neutralization [20] [µg/mL] | other results |
| --- | --- | --- | --- | --- | --- | --- | --- | --- | --- | --- | --- | --- | --- | --- | --- | --- | --- | --- | --- | --- | --- |
| 2F5 (antibody) | 3.37 | 1.27 | 2 | > 50 | 8.22 | > 50 | > 50 | 2.12 | 2.22 | 8.45 | 2.02 | 0.07 | > 50 | 0.85 | > 50 | > 50 | 1.1 | 1.33 | 1.92 | 7.37 | IC50 (µg/ml), pseudovirus neutralization [21]: 15.7 µg/mL; IC50 (µg/ml), pseudovirus neutralization [22]: 20.8 µg/mL |
| 2G12 (antibody) | 0.56 | 0.59 | > 50 | 4.84 | > 50 | > 50 | > 50 | > 50 | > 50 | > 50 | 0.49 | > 50 | > 50 | 3.92 | > 50 | > 50 | > 50 | > 50 | 48.1 | > 50 | IC50 (µg/ml), pseudovirus neutralization [21]: 13.8 µg/mL; IC50 (µg/ml), pseudovirus neutralization [22]: 17 µg/mL |
| 4E10 (antibody) | 3.38 | 1.32 | 5.1 | > 50 | 8.88 | 1.91 | 0.53 | 5.38 | 3.24 | 16.9 | 4.67 | 0.45 | 2.13 | 1.76 | 1.36 | 2.77 | 1.01 | 1.23 | 4.97 | 5.94 | IC50 (µg/ml), pseudovirus neutralization [21]: 9.87 µg/mL; IC50 (µg/ml), pseudovirus neutralization [22]: 14.4 µg/mL |
| 1443_C16 (PG16) (TCN-116) (antibody) | 0.004 | > 50 | > 50 | > 50 | 0.08 | > 50 | 0.003 | 0.11 | 0.003 | > 50 | 0.02 | 0.04 | > 50 | > 50 | 0.002 | 0.02 | 0.27 | 2.42 | 0.04 | 2.65 | IC50 (µg/ml), pseudovirus neutralization [21]: > 50 µg/mL; IC50 (µg/ml), pseudovirus neutralization [22]: 0.004 µg/mL |
| 1495_C14 (PGC14) (antibody) | 28.6 | > 50 | > 50 | 4 | > 50 | > 50 | 9 | > 50 | 48 | > 50 | 40 | > 50 | > 50 | > 50 | > 50 | > 50 | > 50 | > 50 | > 50 | > 50 | IC50 (µg/ml), pseudovirus neutralization [21]: > 50 µg/mL; IC50 (µg/ml), pseudovirus neutralization [22]: > 50 µg/mL |
| 5329_C19 (PGT-136) (antibody) | – | – | – | – | – | – | – | – | – | – | – | – | – | – | – | – | – | – | – | – | IC50 neutralization [23]: 0.738 µg/mL; IC50 (neutralizing activity, pseudovirus) [24]: > 10 µg/mL; IC50 (µg/mL), pseudovirus neutralization [25]: > 50 µg/mL; IC50 (µg/mL), pseudovirus neutralization [26]: 0.406 µg/mL; IC50 (µg/mL), pseudovirus neutralization [27]: > 50 µg/mL; IC50 [28]: > 50 µg/mL; IC50 [29]: > 50 µg/mL; IC50 (µg/mL), pseudovirus neutralization [30]: > 50 µg/mL; IC50 (µg/mL), pseudovirus neutralization [31]: > 50 µg/mL; IC50 (µg/mL), pseudovirus neutralization [32]: > 50 µg/mL; IC50 neutralization [33]: > 50 µg/mL; IC50 (µg/mL), pseudovirus neutralization [34]: > 50 µg/mL; IC50 neutralization [35]: > 10 µg/mL; IC50 (neutralizing activity, pseudovirus) [36]: > 10 µg/mL |
| 5343_B08 (PGT-135) (antibody) | – | – | – | – | – | – | – | – | – | – | – | – | – | – | – | – | – | – | – | – | IC50 neutralization [23]: 0.157 µg/mL; IC50 (neutralizing activity, pseudovirus) [24]: 0.545 µg/mL; IC50 (µg/mL), pseudovirus neutralization [25]: > 50 µg/mL; IC50 (µg/mL), pseudovirus neutralization [26]: 0.429 µg/mL; IC50 (µg/mL), pseudovirus neutralization [27]: > 50 µg/mL; IC50 [28]: > 50 µg/mL; IC50 [29]: > 50 µg/mL; IC50 (µg/mL), pseudovirus neutralization [30]: > 50 µg/mL; IC50 (µg/mL), pseudovirus neutralization [31]: > 50 µg/mL; IC50 (µg/mL), pseudovirus neutralization [32]: > 50 µg/mL; IC50 neutralization [33]: > 50 µg/mL; IC50 (µg/mL), pseudovirus neutralization [34]: > 50 µg/mL; IC50 neutralization [35]: 0.113 µg/mL; IC50 (neutralizing activity, pseudovirus) [36]: > 10 µg/mL |
| b12 (antibody) | > 50 | 49.1 | > 25 | > 50 | > 50 | > 50 | 0.42 | > 50 | > 50 | 17.6 | 0.17 | > 50 | > 50 | > 50 | > 50 | 2.59 | > 50 | > 50 | 6.92 | > 50 | IC50 (µg/ml), pseudovirus neutralization [21]: 13.6 µg/mL; IC50 (µg/ml), pseudovirus neutralization [22]: > 50 µg/mL |
